Reference: US20160272683A1 (Novo Nordisk, published 2016)
Numbered stars: 1 amine (or outer) side, 2 acyl side, 3 side chain; on linkers, the order of the positions; unused ones are H or OH. * marks the point of attachment. C20 diacid = O=C(O)CCCCCCCCCCCCCCCCCCC(=O)*; C18 diacid = O=C(O)CCCCCCCCCCCCCCCCC(=O)*; γGlu = O=C(O)[C@H](CCC(=O)[*:2])N[*:1]

T1: human amylin 3(a) receptor (human calcitonin receptor co-expressed with RAMP-3) (human, UniProt P30988 25-474; O60896 24-148, limits assumed)
T1 sequence (looked up) 1: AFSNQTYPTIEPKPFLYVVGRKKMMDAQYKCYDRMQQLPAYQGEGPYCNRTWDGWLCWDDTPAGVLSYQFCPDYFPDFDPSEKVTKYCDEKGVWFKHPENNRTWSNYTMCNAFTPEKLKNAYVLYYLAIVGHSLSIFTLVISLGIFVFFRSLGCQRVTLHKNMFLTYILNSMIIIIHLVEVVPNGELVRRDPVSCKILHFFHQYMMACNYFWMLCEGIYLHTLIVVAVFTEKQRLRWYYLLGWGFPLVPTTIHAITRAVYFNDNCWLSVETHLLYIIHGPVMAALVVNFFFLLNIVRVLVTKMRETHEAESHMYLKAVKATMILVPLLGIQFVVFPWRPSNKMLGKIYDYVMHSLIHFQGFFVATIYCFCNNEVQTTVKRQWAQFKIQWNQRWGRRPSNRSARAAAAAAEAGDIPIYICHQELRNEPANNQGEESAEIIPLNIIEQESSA
T1 sequence (looked up) 2: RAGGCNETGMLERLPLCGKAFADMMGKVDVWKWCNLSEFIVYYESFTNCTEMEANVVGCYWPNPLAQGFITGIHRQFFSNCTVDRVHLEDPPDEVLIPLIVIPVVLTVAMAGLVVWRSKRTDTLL

T2: human calcitonin receptor (human, UniProt P30988 25-474)
T2 sequence (looked up): T1 sequence (looked up) 1

B1: [N-terminal(C18 diacid-gGlu), des1, 23Y, 30S, 31G]mimylin (peptide)
peptide: {C18 diacid-γGlu}-ASELSTAALGRLSAELHELATYPRTETGSGSP-NH2
SMILES: CC(C)C[C@H](NC(=O)[C@H](C)NC(=O)[C@H](C)NC(=O)[C@@H](NC(=O)[C@H](CO)NC(=O)[C@H](CC(C)C)NC(=O)[C@H](CCC(=O)O)NC(=O)[C@H](CO)NC(=O)[C@H](C)NC(=O)CC[C@H](NC(=O)CCCCCCCCCCCCCCCCC(=O)O)C(=O)O)[C@@H](C)O)C(=O)NCC(=O)N[C@@H](CCCNC(=N)N)C(=O)N[C@@H](CC(C)C)C(=O)N[C@@H](CO)C(=O)N[C@@H](C)C(=O)N[C@@H](CCC(=O)O)C(=O)N[C@@H](CC(C)C)C(=O)N[C@@H](Cc1c[nH]cn1)C(=O)N[C@@H](CCC(=O)O)C(=O)N[C@@H](CC(C)C)C(=O)N[C@@H](C)C(=O)N[C@H](C(=O)N[C@@H](Cc1ccc(O)cc1)C(=O)N1CCC[C@H]1C(=O)N[C@@H](CCCNC(=N)N)C(=O)N[C@H](C(=O)N[C@@H](CCC(=O)O)C(=O)N[C@H](C(=O)NCC(=O)N[C@@H](CO)C(=O)NCC(=O)N[C@@H](CO)C(=O)N1CCC[C@H]1C(N)=O)[C@@H](C)O)[C@@H](C)O)[C@@H](C)O
B2: [N-terminal(C20 diacid-gGlu), des1, 30S, 31G, 33Y]mimylin (peptide)
peptide: {C20 diacid-γGlu}-ASELSTAALGRLSAELHELATLPRTETGSGSY-NH2
SMILES: CC(C)C[C@H](NC(=O)[C@H](C)NC(=O)[C@H](C)NC(=O)[C@@H](NC(=O)[C@H](CO)NC(=O)[C@H](CC(C)C)NC(=O)[C@H](CCC(=O)O)NC(=O)[C@H](CO)NC(=O)[C@H](C)NC(=O)CC[C@H](NC(=O)CCCCCCCCCCCCCCCCCCC(=O)O)C(=O)O)[C@@H](C)O)C(=O)NCC(=O)N[C@@H](CCCNC(=N)N)C(=O)N[C@@H](CC(C)C)C(=O)N[C@@H](CO)C(=O)N[C@@H](C)C(=O)N[C@@H](CCC(=O)O)C(=O)N[C@@H](CC(C)C)C(=O)N[C@@H](Cc1c[nH]cn1)C(=O)N[C@@H](CCC(=O)O)C(=O)N[C@@H](CC(C)C)C(=O)N[C@@H](C)C(=O)N[C@H](C(=O)N[C@@H](CC(C)C)C(=O)N1CCC[C@H]1C(=O)N[C@@H](CCCNC(=N)N)C(=O)N[C@H](C(=O)N[C@@H](CCC(=O)O)C(=O)N[C@H](C(=O)NCC(=O)N[C@@H](CO)C(=O)NCC(=O)N[C@@H](CO)C(=O)N[C@@H](Cc1ccc(O)cc1)C(N)=O)[C@@H](C)O)[C@@H](C)O)[C@@H](C)O
B3: [N-terminal(C20 diacid-gGlu), des1, 30S, 31G, 33H]mimylin (peptide)
peptide: {C20 diacid-γGlu}-ASELSTAALGRLSAELHELATLPRTETGSGSH-NH2
SMILES: CC(C)C[C@H](NC(=O)[C@H](C)NC(=O)[C@H](C)NC(=O)[C@@H](NC(=O)[C@H](CO)NC(=O)[C@H](CC(C)C)NC(=O)[C@H](CCC(=O)O)NC(=O)[C@H](CO)NC(=O)[C@H](C)NC(=O)CC[C@H](NC(=O)CCCCCCCCCCCCCCCCCCC(=O)O)C(=O)O)[C@@H](C)O)C(=O)NCC(=O)N[C@@H](CCCNC(=N)N)C(=O)N[C@@H](CC(C)C)C(=O)N[C@@H](CO)C(=O)N[C@@H](C)C(=O)N[C@@H](CCC(=O)O)C(=O)N[C@@H](CC(C)C)C(=O)N[C@@H](Cc1c[nH]cn1)C(=O)N[C@@H](CCC(=O)O)C(=O)N[C@@H](CC(C)C)C(=O)N[C@@H](C)C(=O)N[C@H](C(=O)N[C@@H](CC(C)C)C(=O)N1CCC[C@H]1C(=O)N[C@@H](CCCNC(=N)N)C(=O)N[C@H](C(=O)N[C@@H](CCC(=O)O)C(=O)N[C@H](C(=O)NCC(=O)N[C@@H](CO)C(=O)NCC(=O)N[C@@H](CO)C(=O)N[C@@H](Cc1c[nH]cn1)C(N)=O)[C@@H](C)O)[C@@H](C)O)[C@@H](C)O

What follows are binders tested against T1, human amylin 3(a) receptor (human …) (assay: cell-based or functional assay).

Binder | hAmylin-R funct. EC50 (pM)
B1 | 10
B2 | 46
B3 | 53

What follows are binders tested against T2, human calcitonin receptor (assay: cell-based or functional assay).

Binder | hCTR funct. EC50 (pM)
B1 | 10
B2 | 37
B3 | 48
